The values below come from paper PMC2253636.

This test deals with IEk on the surface of CH27 murine B-cell lymphoma cells (mouse (endogenous in CH27)). The test is described as follows: flow cytometry on cells; CH27 cells incubated with 1 mM biotinylated peptide for 20 h at 37 °C, washed, stained with streptavidin-Cy5; occupancy of IEk calculated against cells stained with 14-4-4s-bio and streptavidin-Cy5.

In the case of “biotinylated ER60 peptide (from UniProt P27773 448-461)”, the percent of IEk molecules occupied was 17%.
